From US20240190968A1

B1: humanized antibody h12G4 (antibody, human IgG1, kappa, V domains shown)
VH: EVQLVQSGAEVKKPGASVKVSCKASGYTFTDYNMDWVRQAPGKGLEWIGDINPNNGGTLYNQKFRGRVTLTVDKSISTAYMELSRLRSDDTAVYYCARSEVFYGNYADYWGQGTTVTVSS
VL: DIVLTQTPLSLSVTPGQPASISCKASQSVDYDGDSYMNWYLQKPGQPPQLLIYAASTLHSGVPDRFSGSGSGTDFTLKISRVEAEDVGVYYCQQSKEDPRTFGQGTKLEIKR
B2: humanized antibody h12F5 (antibody, human IgG1, kappa, V domains shown)
VH: EVQLVQSGAEVKKPGASVKVSCKASGYTFTSYYMYWVRQAPGQGLEWIGEINPSNGGTNFNEKFKSRVTLTVDKSISTAYMELSRLRSDDTAVYYCTRTLYYGNDWYFDVWGQGTTVTVSS
VL: EIVLTQSPDFQSVTPKEKVTITCSASSSVNYMHWYQQKPDQSPKRLIYDTSKLASGVPSRFSGSGSGTDYTLTINSLEAEDAATYYCQQWSSNPVTFGQGTKLEIKR

Molecular target: Cynomolgus monkey B7H6 protein overexpressed in CHO-K1 cells (Cynomolgus monkey)
Assay: flow cytometry on CHO-K1-cyno B7H6 cells, Alexa-647 mouse anti-human IgG-Fc secondary antibody, binding ratio (%)

Sequence of Cynomolgus monkey B7H6 protein overexpressed in CHO-K1 cells (Cynomolgus monkey) (chain, as listed by the source limits assumed, form in doubt): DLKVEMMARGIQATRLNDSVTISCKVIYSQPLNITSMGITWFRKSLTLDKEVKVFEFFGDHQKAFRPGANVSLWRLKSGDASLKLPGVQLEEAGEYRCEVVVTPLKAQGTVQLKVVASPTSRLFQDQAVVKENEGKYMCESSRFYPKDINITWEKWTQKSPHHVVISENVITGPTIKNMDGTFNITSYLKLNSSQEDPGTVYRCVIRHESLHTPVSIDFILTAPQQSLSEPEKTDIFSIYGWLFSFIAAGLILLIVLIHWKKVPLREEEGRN

Row | Binder | EC50 (read off the curve) [µg/mL]
1 | B1 | 0.7
2 | B2 | 0.2
